Results as given in paper PMC4225490, “Crystal structure of the γ-hydroxymuconic semialdehyde dehydrogenase from Pseudomonas sp. strainWBC-3, a key enzyme involved in para-Nitrophenol degradation” (BMC Structural Biology, 2013).

Legend:
[1] = target: γ-hydroxymuconic semialdehyde dehydrogenase PnpE from Pseudomonas sp. strain WBC-3 (Pseudomonas sp. strain WBC-3); experiment: crystal structure; apo-PnpE, space group P21, 2.7 Å; eight monomers in the asymmetric unit; crystals grown from 20% PEG3350, 0.2 M KNO3 at 20°C
[2] = target: T1, PnpE, γ-hydroxymuconic semialdehyde dehydrogenase (Pseudomonas sp. WBC-3, UniProt C1I208); experiment: X-ray crystal structure, […] Å; format: binding; conditions: co-crystallised with 1 mM NAD, 0.1 M Bicine pH 8.5, 20% PEG10000, 20 °C; cofactor site
T1 construct: recombinant His-tagged in E. coli BL21(DE3), pET29b NdeI/XhoI; Ni-NTA, Source-Q, Superdex-200; homodimer (four dimers per asymmetric unit)
T1 sequence (C1I208 1-487): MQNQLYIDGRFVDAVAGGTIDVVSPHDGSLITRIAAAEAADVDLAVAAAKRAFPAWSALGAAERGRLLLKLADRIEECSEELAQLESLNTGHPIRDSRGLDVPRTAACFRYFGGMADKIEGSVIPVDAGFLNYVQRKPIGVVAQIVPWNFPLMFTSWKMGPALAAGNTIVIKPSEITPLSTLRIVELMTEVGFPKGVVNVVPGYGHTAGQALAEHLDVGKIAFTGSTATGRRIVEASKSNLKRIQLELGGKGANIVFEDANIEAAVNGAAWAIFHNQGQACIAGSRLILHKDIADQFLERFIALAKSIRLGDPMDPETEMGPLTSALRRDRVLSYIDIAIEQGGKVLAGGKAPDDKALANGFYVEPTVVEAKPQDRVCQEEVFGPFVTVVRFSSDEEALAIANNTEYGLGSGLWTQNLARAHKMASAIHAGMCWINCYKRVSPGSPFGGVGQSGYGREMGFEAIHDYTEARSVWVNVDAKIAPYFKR

stoichiometry N [1] | Molecule | X-ray crystal structure, 3.1 Å [2]
2 | γ-hydroxymuconic semialdehyde dehydrogenase PnpE from Pseudomonas sp. strain WBC-3 (enzyme) | –
– | NC(=O)c1ccc[n+]([C@@H]2O[C@H](COP(=O)(O)OP(=O)(O)OC[C@H]3O[C@@H](n4cnc5c(N)ncnc54)[C@H](O)[C@@H]3O)[C@@H](O)[C@H]2O)c1 [NAD] | In the PnpE-NAD complex structure, NAD is situated in a cleft of PnpE.
